Assay in all cases: purified protein
Common to all, as to details: 1.2 mM L-Trp, 25 mM Tris, 5 mM MgCl2, 50 mM KCl, pH 7.5, 35 °C

Substrate in data set [1]: C/C(Br)=C/COP(=O)(O)OP(=O)(O)O
Substrate in data set [2]: CC=CCOP(=O)(O)OP(=O)(O)O
Substrate in data set [3]: O=P(O)(O)OP(=O)(O)OCc1ccc(F)cc1
Substrate in data set [4]: CCC(=CCOP(=O)(O)OP(=O)(O)O)CC
Substrate in data set [5]: O=P(O)(O)OP(=O)(O)OCC=C1CCCC1
Substrate in data set [6]: COc1cccc(COP(=O)(O)OP(=O)(O)O)c1
Substrate in data set [7]: O=P(O)(O)OP(=O)(O)OCc1ccc(Br)cc1
Substrate in data set [8]: COc1ccccc1COP(=O)(O)OP(=O)(O)O
Substrate in data set [9]: O=P(O)(O)OP(=O)(O)OCc1ccccc1
Substrate in data set [10]: CC(C)=CCOP(=O)(O)OP(=O)(O)O
Substrate in data set [11]: O=P(O)(O)OP(=O)(O)OCc1ccc(Cl)cc1

Here are results for 1 protein from paper PMC6748273.

B1: FgaPT2 (Aspergillus fumigatus Af293) (protein)
chain: MKAANASSAEAYRVLSRAFRFDNEDQKLWWHSTAPMFAKMLETANYTTPCQYQYLITYKECVIPSLGCYPTNSAPRWLSILTRYGTPFELSLNCSNSIVRYTFEPINQHTGTDKDPFNTHAIWESLQHLLPLEKSIDLEWFRHFKHDLTLNSEESAFLAHNDRLVGGTIRTQNKLALDLKDGRFALKTYIYPALKAVVTGKTIHELVFGSVRRLAVREPRILPPLNMLEEYIRSRGSKSTASPRLVSCDLTSPAKSRIKIYLLEQMVSLEAMEDLWTLGGRRRDASTLEGLSLVRELWDLIQLSPGLKSYPAPYLPLGVIPDERLPLMANFTLHQNDPVPEPQVYFTTFGMNDMAVADALTTFFERRGWSEMARTYETTLKSYYPHADHDKLNYLHAYISFSYRDRTPYLSVYLQSFETGDWAVANLSESKVKCQDAACQPTSLPPDLSKTGVYYSGLH
As usually defined, the kcat is the number of substrate molecules converted per active site and unit of time at saturation. The kcat/Km is the second-order rate constant that governs catalysis at low substrate concentration. For the protein B1, the kcat in data set [1] worked out at 0.00783 ± 0.000167 s⁻¹; in data set [2], 0.0095 ± 0.000333 s⁻¹; in [3], 0.0046 ± 6.67e-05 s⁻¹; in data set [4], 0.108 ± 0.00167 s⁻¹; in data set [5], 0.084 ± 0.003 s⁻¹; in data set [6], 0.00283 ± 8.33e-05 s⁻¹. Besides, the catalytic constant (kcat) in [7] was 0.00223 ± 5e-05 s⁻¹; in data set [8], 0.0322 ± 0.000833 s⁻¹; in data set [9], 0.0227 ± 0.000333 s⁻¹; in data set [10], 0.833 ± 0.0167 s⁻¹; in data set [11] it was 0.00327 ± 6.67e-05 s⁻¹. The catalytic efficiency (kcat/Km) in [1] was 21.7 ± 1.67 M⁻¹ s⁻¹; in data set [2], 65 ± 6.67 M⁻¹ s⁻¹; in data set [3], 11.5 ± 0.667 M⁻¹ s⁻¹; in data set [4], 283 ± 16.7 M⁻¹ s⁻¹; in data set [5] it was 267 ± 33.3 M⁻¹ s⁻¹; in [6], 3.83 ± 0.333 M⁻¹ s⁻¹. In addition, the specificity constant (kcat/Km) stood at 7 ± 0.667 M⁻¹ s⁻¹ in [7]; 56.7 ± 3.33 M⁻¹ s⁻¹ in [8]; 103 ± 5 M⁻¹ s⁻¹ in data set [9]; 5820 ± 467 M⁻¹ s⁻¹ in [10]; 7.67 ± 0.5 M⁻¹ s⁻¹ in data set [11].
